# B1: GluLm (Limosilactobacillus mucosae) (protein)
# chain: MTKVDLNFVEGLTLEERADLVSGTDFWFTAKVSGMDPMLMTDGPSGLRKQVNVHSAMDQSIEAVCFPCSALTASSFDDQMLEKLGEQLGTAARAEKIGVLLGPGVNIKRSPLAGRNFEYFSEDPLLAGRMGTAYVKGVQSTGVGVSVKHFATNNREDQRFTNSSDVDERTLREIYLAQFERIVKQAHPATIMCSYNKLNGVQVSQNQRLLTNILRDEWGYQGLVMSDWGAVVDHTAAIKAGLDLEMPGKGDASKEEIIQAVKEGRLQESTLNRSALRVLEMAERYGHPKTPAPAYDMEAQHEFARQLADDSIVLLKNEKQELPLSDSAKLAVIGELAEKPRFEGGGSSHVNAHRVVTPKEVMPENAVYAQGYRLDSDQPDEQLTAEAMALAKNSDQVVFFAGFPEAMESEGFDKHSISLPANQNKLLEQLLTVNPHVVVVLQNGSAVEMPWEPETPAIVETYLAGEAVGEATWDILSGQVNPSGKLSETFPKRLADNPTYPTFGKDRRHEVYREGILMGYRYYDAKQLAVRFPFGHGLSYTTFAYQNLTIRENSDDVTVSFDLENTGSQAGKEVAQVYVANHASQTIMPIDELRDFVKVELQPGETKHLTLKLSRRAFAWYNSETETWEADNGQYEILVGSSSRDIRLRQEFELTIGTNPLGKITGETYVGELMENADERIKQIIAEMGLTATFDKFMSPELAPIFANIPLRSLTMADVDAETVHELLQKLNELD
# notes: full-length, C-terminal poly-His tag (pLATE31), expressed in E. coli BL21(DE3), GraviTrap purified, 81 kDa
# Columns and labels:
# GluLm = biological target: T1, GluLm (Limosilactobacillus mucosae, UniProt A0A508YIL6); assay: inhibition of pNPG hydrolysis, p-nitrophenol release at […] nm; type: biochemical; conditions: 100000 µM; free enzyme; 1 mmol L^−1 pNPG; 100 mmol L^−1 sodium phosphate pH 6.5; 37°C; 5 min
# T1 construct: gene bglB; full-length, C-terminal poly-His tag (pLATE31), expressed in E. coli BL21(DE3), GraviTrap purified, 81 kDa
# T1 sequence (A0A508YIL6 1-735): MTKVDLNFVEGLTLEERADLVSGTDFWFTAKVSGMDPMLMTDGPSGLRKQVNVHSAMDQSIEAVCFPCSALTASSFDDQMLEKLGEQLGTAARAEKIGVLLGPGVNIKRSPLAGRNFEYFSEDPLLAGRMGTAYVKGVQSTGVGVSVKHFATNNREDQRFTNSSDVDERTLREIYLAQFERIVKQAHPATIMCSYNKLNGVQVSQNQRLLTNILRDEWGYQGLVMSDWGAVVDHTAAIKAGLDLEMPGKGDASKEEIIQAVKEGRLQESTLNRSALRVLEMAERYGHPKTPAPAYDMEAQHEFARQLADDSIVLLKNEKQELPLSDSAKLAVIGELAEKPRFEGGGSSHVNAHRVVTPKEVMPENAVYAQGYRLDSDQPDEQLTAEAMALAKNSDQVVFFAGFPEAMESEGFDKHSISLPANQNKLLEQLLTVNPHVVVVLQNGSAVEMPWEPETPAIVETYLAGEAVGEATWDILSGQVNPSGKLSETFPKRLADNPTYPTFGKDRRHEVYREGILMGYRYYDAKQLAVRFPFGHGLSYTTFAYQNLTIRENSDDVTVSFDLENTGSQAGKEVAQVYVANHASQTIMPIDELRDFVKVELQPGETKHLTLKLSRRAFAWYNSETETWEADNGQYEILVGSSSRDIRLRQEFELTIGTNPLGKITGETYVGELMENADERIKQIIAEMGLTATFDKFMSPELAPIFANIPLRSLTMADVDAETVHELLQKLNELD
# purified protein [1] = substrate: O=[N+]([O-])c1ccc(O[C@@H]2O[C@H](CO)[C@@H](O)[C@H](O)[C@H]2O)cc1; assay: purified protein; type: biochemical, Limosilactobacillus mucosae; conditions: free enzyme; 0.1 to 10 mmol L^−1 substrate; pH and temperature not restated for kinetics
# purified protein [2] = substrate: O=[N+]([O-])c1ccc(O[C@@H]2O[C@H](CO)[C@H](O)[C@H](O)[C@H]2O)cc1; assay: purified protein; type: biochemical, Limosilactobacillus mucosae; conditions: free enzyme; 0.1 to 10 mmol L^−1 substrate; pH and temperature not restated for kinetics
# purified protein [3] = substrate: C[C@@H]1O[C@@H](Oc2ccc([N+](=O)[O-])cc2)[C@@H](O)[C@H](O)[C@@H]1O; assay: purified protein; type: biochemical, Limosilactobacillus mucosae; conditions: free enzyme; 0.1 to 10 mmol L^−1 substrate; pH and temperature not restated for kinetics
# purified protein [4] = substrate: O=[N+]([O-])c1ccc(O[C@@H]2OC[C@@H](O)[C@H](O)[C@H]2O)cc1; assay: purified protein; type: biochemical, Limosilactobacillus mucosae; conditions: free enzyme; 0.1 to 10 mmol L^−1 substrate; pH and temperature not restated for kinetics
# purified protein [5] = substrate: C[C@H]1O[C@@H](Oc2ccc([N+](=O)[O-])cc2)[C@H](O)[C@@H](O)[C@H]1O; assay: purified protein; type: biochemical, Limosilactobacillus mucosae; conditions: free enzyme; 0.1 to 10 mmol L^−1 substrate; pH and temperature not restated for kinetics
molecule,measurement,setting,value
OC[C@H]1OC(O)[C@H](O)[C@@H](O)[C@@H]1O (stereo partly drawn) [glucose],Relative activity (%),GluLm,48.3 ± 5.7%
B1,Km,purified protein [1],100 ± 10 µM
same,Vmax,purified protein [1],33.8 µmol/min
same,kcat,purified protein [1],9120 s⁻¹
same,kcat/Km,purified protein [1],8.66e+07 M⁻¹ s⁻¹
same,Km,purified protein [2],2810 ± 180 µM
same,Vmax,purified protein [2],0.86 µmol/min
same,kcat,purified protein [2],117 s⁻¹
same,kcat/Km,purified protein [2],41900 M⁻¹ s⁻¹
same,Km,purified protein [3],2820 ± 240 µM
same,Vmax,purified protein [3],0.06 µmol/min
same,kcat,purified protein [3],7.8 s⁻¹
same,kcat/Km,purified protein [3],2700 M⁻¹ s⁻¹
same,Km,purified protein [4],760 ± 50 µM
same,Vmax,purified protein [4],4.07 µmol/min
same,kcat,purified protein [4],552 s⁻¹
same,kcat/Km,purified protein [4],729000 M⁻¹ s⁻¹
same,Km,purified protein [5],1030 ± 40 µM
same,Vmax,purified protein [5],1.64 µmol/min
same,kcat,purified protein [5],223 s⁻¹
same,kcat/Km,purified protein [5],218000 M⁻¹ s⁻¹

# — PMC10774645, “Characterization and stabilization of GluLm and its application to deglycosylate dietary flavonoids and lignans” (Applied Microbiology and Biotechnology, 2024)
